Results from PMC4868323, “Interaction of Toll-Like Receptors with the Molecular Chaperone Gp96 Is Essential for Its Activation of Cytotoxic T Lymphocyte Response” (PLoS ONE, 2016).
No end group written: not given here.

Tests used:
Test in all cases: ELISA; biotinylated HBc87-95 on 96-well streptavidin plates; serial dilutions of gp96 0.03–200 μg/mL in 20 mM HEPES pH 7.2, 20 mM NaCl, 2 mM MgCl2, 100 mM KCl, 1.5 h; detected with rat anti-grp94 antibody; 300 μM radicicol as inhibitor
Conditions in all cases: both partners purified
[1] = target: T1, native mouse gp96 (mgp96) (mouse, UniProt P08113 22-802)
T1 construct: gp96 (GRP94, endoplasmin) purified from mouse liver; also called native gp96; source: purified from healthy mouse livers

[2] = target: T2, recombinant wild-type gp96 (gp96-wt), His-tagged (human, UniProt P14625 22-803, FITC label on the portion used for flow cytometry (sites not given))
T2 construct: human gp96 (GRP94), mature protein; cDNA in pET28a(+) subcloned with its His tag into pFastBac1; the 3' primer ends at ...EKDEL stop; The tag's end is read from the printed sense primer (MGSSHH..., as in pET28a); Unlabelled in the co-IP and ELISA, FITC-labelled in flow cytometry; also called FITC-gp96-wt; glucose-regulated protein 94; source: baculovirus (Bac-to-Bac, pFastBac1), purified …

[3] = target: T3, gp96 with Ala substitutions at the conserved residues in the first half of the CBD (gp96-mut), His-tagged (human, UniProt P14625 22-803, GWSGNMER (653-660) to AASAAAAA, read from the printed gp96-mut primer, FITC label on the portion used for flow cytometry (sites not given))
T3 construct: human gp96 (GRP94), mature protein, with Ala substitutions in the GWXGNMER motif of the CBD; positions follow the legend's 653-660 for the same eight residues deleted in gp96-ΔCBD; also called mutated gp96; mutant gp96; source: baculovirus (Bac-to-Bac, pFastBac1), purified (Ni-sepharose, Hitrap Q HP, Superdex 200)

Measured: binding result

T1 sequence (P08113 22-802): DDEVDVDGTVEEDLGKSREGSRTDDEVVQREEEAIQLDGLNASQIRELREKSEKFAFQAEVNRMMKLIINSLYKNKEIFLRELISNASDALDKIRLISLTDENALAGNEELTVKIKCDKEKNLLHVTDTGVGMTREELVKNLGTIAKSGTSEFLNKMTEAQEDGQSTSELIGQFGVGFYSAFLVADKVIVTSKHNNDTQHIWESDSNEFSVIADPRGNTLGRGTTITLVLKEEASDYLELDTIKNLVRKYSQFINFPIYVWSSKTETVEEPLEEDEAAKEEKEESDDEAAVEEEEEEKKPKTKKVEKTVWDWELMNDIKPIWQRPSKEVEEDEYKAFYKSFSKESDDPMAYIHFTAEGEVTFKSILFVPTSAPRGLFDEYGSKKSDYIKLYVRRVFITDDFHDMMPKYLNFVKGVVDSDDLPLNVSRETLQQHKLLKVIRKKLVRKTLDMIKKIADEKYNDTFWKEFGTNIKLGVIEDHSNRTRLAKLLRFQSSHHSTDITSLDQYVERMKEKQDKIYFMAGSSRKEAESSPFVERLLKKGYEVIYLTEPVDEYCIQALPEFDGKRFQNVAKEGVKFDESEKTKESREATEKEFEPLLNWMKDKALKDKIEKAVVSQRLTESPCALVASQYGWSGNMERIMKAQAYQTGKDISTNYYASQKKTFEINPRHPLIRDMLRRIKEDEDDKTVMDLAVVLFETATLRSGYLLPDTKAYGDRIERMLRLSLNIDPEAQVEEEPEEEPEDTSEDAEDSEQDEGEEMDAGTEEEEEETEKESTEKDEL
T3 sequence (P14625 other isoform, or with tags, fused parts or gaps with the stated changes): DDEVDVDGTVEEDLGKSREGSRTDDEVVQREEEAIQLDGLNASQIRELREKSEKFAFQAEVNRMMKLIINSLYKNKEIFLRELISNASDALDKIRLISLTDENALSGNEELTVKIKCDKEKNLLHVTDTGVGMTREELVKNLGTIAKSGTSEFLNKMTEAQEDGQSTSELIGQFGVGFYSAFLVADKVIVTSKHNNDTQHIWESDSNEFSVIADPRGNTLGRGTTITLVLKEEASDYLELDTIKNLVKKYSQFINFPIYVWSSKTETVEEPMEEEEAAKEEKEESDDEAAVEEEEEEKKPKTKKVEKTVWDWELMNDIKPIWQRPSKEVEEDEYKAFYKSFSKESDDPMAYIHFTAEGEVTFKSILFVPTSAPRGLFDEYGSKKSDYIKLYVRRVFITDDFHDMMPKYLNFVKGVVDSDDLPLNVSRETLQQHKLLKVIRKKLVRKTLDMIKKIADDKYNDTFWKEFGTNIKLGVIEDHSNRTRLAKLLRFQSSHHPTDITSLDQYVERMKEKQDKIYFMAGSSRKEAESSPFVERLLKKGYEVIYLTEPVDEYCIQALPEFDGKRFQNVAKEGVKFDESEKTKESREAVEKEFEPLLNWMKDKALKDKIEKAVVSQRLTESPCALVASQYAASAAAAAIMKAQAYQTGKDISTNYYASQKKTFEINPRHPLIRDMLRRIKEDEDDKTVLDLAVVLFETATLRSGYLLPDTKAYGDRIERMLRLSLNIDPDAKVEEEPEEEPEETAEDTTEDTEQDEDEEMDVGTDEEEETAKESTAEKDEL
T2 sequence (P14625 22-803): as the sequence (P14625 other isoform, or with tags, fused parts or gaps with the stated changes) above, with A632G, A633W, A635G, A636N, A637M, A638E, A639R counted along it

B1: biotinylated peptide HBc87-95 (peptide)
peptide: SYVNTNMGL
modifications: also: biotinylated, position not given here
notes: also called HBcAg_(87–95); source: synthetic peptide (GL Biochem Ltd.)
binds: all assays above
